According to the Human Domainome abundance scans (Beltran et al. 2025):

B1: POU domain, class 3, transcription factor 1, residues 247 to 324; numbered along this chain, Q03052 (parent)
chain: EDAPSSDDLEQFAKQFKQRRIKLGFTQADVGLALGTLYGNVFSQTTICRFEALQLSFKNMCKLKPLLNKWLEETDSSS
B2: TOX high mobility group box family member 3, residues 256 to 323; numbered along this chain, O15405 (parent)
chain: QKPVSAYALFFRDTQAAIKGQNPNATFGEVSKIVASMWDSLGEEQKQVYKRKTEAAKKEYLKALAAYR

Variants of: B1
Assay: abundance fitness (aPCA) (normalised: wild type 0, dead -1); higher = more abundant; growth selection in yeast, the domain comes from the species named
Conditions: Homo sapiens

Abundance fitness, by site and new letter:
S6: A 0.427 | C 0.398 | T 0.38 | D 0.125 | M 0.473 | P 0.162 | H 0.308 | F 0.355 | N 0.178 | K 0.49 | Q 0.436 | Y 0.043 | I 0.346 | G 0.321 | R 0.365 | E 0.223 | W 0.405
D8: V -0.217 | G -0.095 | S -0.415 | I -0.529 | M 0.014 | F -0.481 | H -0.276 | N -0.294 | L -0.491 | Y -0.826 | A -0.183 | C -0.358 | K -0.397 | Q -0.25 | E -0.076 | T -0.454 | R -0.179
D2: W 0.001 | V 0.171 | G 0.411 | N 0.256 | K 0.452 | H 0.29 | L 0.151 | I 0.413 | C 0.081 | R 0.312 | F 0.166 | T 0.459 | A 0.217 | P 0.252 | Y 0.197 | S 0.453 | M 0.342 | E 0.41 | Q 0.267
D7: Y 0.101 | N -0.305 | F -0.616 | P -0.642 | S -0.477 | E 0.089 | H -0.361 | M -0.153 | K 0.358 | V -0.181 | T -0.073 | G -0.045 | Q -0.138 | W -0.427 | A -0.142 | C -0.316 | R -0.085
P4: L -0.031 | R -0.229 | W 0.066 | G -0.098 | F -0.366 | A 0.008 | I 0.13 | M 0.032 | H 0.002 | Q -0.24 | N -0.403 | K -0.114 | D -0.134 | Y 0.169 | E -0.043 | T 0.019 | C 0.126
A3: F 0.281 | Y -0.033 | N 0.444 | S 0.238 | P 0.051 | W 0.098 | D -0.164 | E -0.049 | M 0.363 | L 0.362 | R 0.222 | H 0.258 | V -0.08 | C 0.172 | G -0.053 | T 0.238 | Q 0.327
E1: Q 0.209 | Y 0.05 | N -0.013 | W 0.144 | A -0.211 | T 0.088 | I 0.3 | L 0.135 | F 0.118 | G -0.031 | R 0.102 | S 0.126 | D 0.359 | M 0.319 | K 0.066 | C 0.281 | V 0.103
S5: F -0.143 | P 0.067 | C 0.113 | N 0.119 | I -0.234 | W -0.206 | E 0.111 | Y -0.062 | R 0.164 | K 0.07 | H 0.283 | A 0.048 | Q 0.042 | V 0.045 | T 0.09 | M 0.141 | D 0.388 | L 0.129

Variants of: B2
Assay: as above
Conditions: Homo sapiens

Abundance fitness of substitutions, site by site:
G20: V 0.039
Q47: C -0.195 | T -0.42 | E -0.052
Q1: H 0.119 | G 0.107 | T 0.012
Y67: T 0.274 | E 0.138
L61: D 0.319
E44: T -0.072
L9: Q 0.053 | P -1.08
S36: M -0.097 | N -0.054 | D -0.03
V30: T -0.342
A56: Y -0.102 | V -0.054
I18: S -0.682 | G -0.966 | Y 0.02 | D -1.11
D13: I -0.442 | G -0.855 | E 0.11 | A -0.259
E59: I -0.663
